Source: patent US12296016B2, “Ceramide-like lipid-based delivery vehicles and uses thereof” (Children's Medical Center Corporation, priority 2018, dated 2025)

How the values were obtained:
[1] = mice, gastric gavage
Experimental: FIGS. 4A-4D. In vivo mouse studies. Absorption from intestine into blood for GM-fusion molecules 15 and 30 minutes after gastric gavage (FIG. 4A), and absorption from intestine into liver for GM-fusion molecules 1 hour after gastric gavage (FIG. 4B) are shown. […] Time course for absorption into blood was plotted (FIG. 4C). N=3 independent studies.

[2] = mouse, in vivo, 2.5 nmol/kg
Experimental: The dose was 2.5 nmol/kg for 7 week old C57B/6J with an intranasal administration volume of 10 μL and an intraperitoneal injection volume of 200 μL.

[3] = system: human microvascular endothelial cells (HMECs); test: Confocal fluorescence microscopy of lysosomal transport of GM1-peptides in HMECs; assay type: cell-based; conditions: 2 μM, 1 hour continuous uptake, Lysotracker-Red
Experimental: FIGS. 25A-25C. Confocal fluorescence microscopy images of lysosomal transport of GM1-peptides. (FIG. 25A) A schematic of endosomal sorting in human microvascular endothelial cells (HMECs). (FIG. 25B) Images HMECs incubated either with C16:0-GM1-peptide (top panels), or peptide alone (bottom panel). Cells were treated with 2 μM fluorescently green labeled compound for 1 hour for continuous uptake on coverslips, and imaged in the presence of Lysotracker-Red (red). […] Scale bars=10 μm.

[4] = Bioavailability and pharmacokinetics of peptide fused to GM1-C4:0 in rat (gastric route or intravenous injection); conditions: day one after intravenous injection
Experimental: Next, the bioavailability and pharmacokinetics of a peptide fused to GM-C4:0 was tested in vivo in rat.

MDCK cells = test: Transcytosis in MDCK cells (transwell assay, streptavidin pull-down, fluorescence)
Experimental: The in vitro transport (transcytosis) of the peptide-GM1 conjugates across a monolayer of MDCK cells, and in vivo transport across an intestinal or nasal barrier into the blood are assessed. The peptide alone are used as negative controls, and the GM1 analogs as positive controls. C6, and C12 fatty acid analogs of ceramide were also included in the experiments as direct comparisons to the GM1 and GM3 species.
MDCK cells were seeded in 0.33 cm^2 inserts 3 days prior in media containing HBSS and […] defatted BSA. Electrical resistance was checked on day of experiment.
• 1) peptide Control • 2) GM1-C6:0-peptide • 3) Peptide-C12 fatty acid • 4) Ceramide-C2-
• 1) Check electrical resistance by EVOM. • 2) Prepare stock solutions above. • 3) Wash cells apical and basolateral with HBSS, without FBS. […]
• 1) Washed Stretavidin Magnetic beads with TBS-T 4×, to remove azide. • 2) Resuspend heads in 800 uL TBS then aliquoted 50 uL out to each tube • 3) Add 1000 μL to streptavidin heads overnight at 4° C. with rotation O/N covered in foil. • 4) Remove media and wash 3×TBS-T. • 5) Elute by addition of 220 ul 95% Formamide. 10 mM EDTA 0.4 mg/ml biotin—2 min@65° C. • 6) Pipetted 100 uL of each sample×2 on 96 well plate • 7) Fluorescence was read out on a microplate reader for Fluorescein channel, and against a standard curve. […]

T84 intestinal cells = test: Transcytosis across T84 intestinal cells; assay type: in vitro ADME
[5] = Nasal absorption of ceramide-C6 reporter peptide conjugate in mice; assay type: in vivo, C57BL/6J mice; conditions: 2 nmol/kg, blood 15 minutes post dose
Experimental: A reporter peptide was conjugated to a ceramide-C6 (Cer-C6) was administered to C57BL/6J mice (n=1, from Jackson Labs) at a dose of 2 nmol/kg. GM1-C6 conjugated to the same reported peptide was used as control. A total of 5 μl per nostril was administered over 5 minutes under isoflurane. Blood was collected via cardiac puncture 15 minutes post dose and the amount of the conjugate was evaluated by pulling down with magnetic streptavidin beads followed by elution and plate fluorescence measurement.

## N=C(N)NCCC[C@@H](NC(=O)CNC(=O)[C@@H](Cc1ccc(O)cc1)NC(=O)CNC(=O)[C@@H](CO)NC(=O)CNC(=O)[C@@H](CCCCNC(=O)CCCC[C@@H]1SC[C@@H]2NC(=O)N[C@@H]21)NC(=O)[C@H](N)Cc1cn(CCCCCCNC(=O)c2ccc(-c3c4ccc(=N)c(S(=O)(=O)O)c-4oc4c(S(=O)(=O)O)c(N)ccc34)c(C(=O)O)c2)nn1)C(=O)NCC(=O)N[C@H](CO)C(=O)NCC(=O)N[C@H](CCCCNC(=O)CON)C(N)=O [peptide alone]
[1]
  absorption from intestine into blood and liver: not absorbed
[2]
  bioavailability: 1.3%
[3]
  intracellular localization: did not enter into cells
[4]
  level in rat serum: 10.8 nmol/kg
MDCK cells; apical to basolateral, 37° C.
  transcytosis across MDCK cell monolayer: did not cross the epithelial barrier

## CCCCCCCCCCCCC/C=C/[C@@H](O)[C@H](CO[C@@H]1O[C@H](CO)[C@@H](O[C@@H]2O[C@H](CO)[C@H](O[C@@H]3O[C@H](CO)[C@H](O)[C@H](O[C@@H]4O[C@H](CO)[C@H](O)[C@H](O)[C@H]4O)[C@H]3NC(C)=O)[C@H](O[C@]3(C(=O)O)C[C@H](O)[C@@H](NC(C)=O)[C@H](C=NOCC(=O)NCCCC[C@@H](NC(=O)CNC(=O)[C@@H](CO)NC(=O)CNC(=O)[C@@H](CCCNC(=N)N)NC(=O)CNC(=O)[C@@H](Cc4ccc(O)cc4)NC(=O)CNC(=O)[C@@H](CO)NC(=O)CNC(=O)[C@@H](CCCCNC(=O)CCCC[C@@H]4SC[C@@H]5NC(=O)N[C@@H]54)NC(=O)[C@H](N)Cc4cn(CCCCCCNC(=O)c5ccc(-c6c7ccc(=N)c(S(=O)(=O)O)c-7oc7c(S(=O)(=O)O)c(N)ccc67)c(C(=O)O)c5)nn4)C(N)=O)O3)[C@H]2O)[C@H](O)[C@H]1O)NC(=O)CCCCC [peptide fused to GM1-C6:0]
[2]
  bioavailability: 24.4%

## AF488-LC9-oxime-C6-ceramide [Cer-C6]
T84 intestinal cells
  transcytosis across T84 intestinal cells: greater than for peptides fused to GM1 or GM3 species
[5]
  absorption via the nose: absorbed more efficiently than peptide conjugated to GM1-C6
[5]; listed as ceramide C6
  absorption via the nose: absorbed via the nose
[5]; listed as ceramide-C6-reporter peptide conjugate
  absorption via the nose: can be absorbed via nose in mice
MDCK cells; MDCK
  transport with 4° C. temperature block: reduced the uptake

## glucagon-like peptide-1 (GLP-1) [GLP-1 peptide alone]
mice, gastric gavage
  effect on glucose metabolism in glucose tolerance test: no detectable effect on glucose metabolism
mouse, in vivo
  absorption after gastric gavage: not absorbed
